Assay results as given in paper PMC3214010.

What was measured:
[1] = biological target: human Dcn1 potentiating neddylation domain (hDcn1^P) (human) (UniProt Q96GG9); experiment: ITC
[2] = biological target: yeast Dcn1 potentiating neddylation domain (yDcn1^P) (yeast) (UniProt Q12395); experiment: ITC
Sequence of UniProt Q12395 (Q12395 70-269): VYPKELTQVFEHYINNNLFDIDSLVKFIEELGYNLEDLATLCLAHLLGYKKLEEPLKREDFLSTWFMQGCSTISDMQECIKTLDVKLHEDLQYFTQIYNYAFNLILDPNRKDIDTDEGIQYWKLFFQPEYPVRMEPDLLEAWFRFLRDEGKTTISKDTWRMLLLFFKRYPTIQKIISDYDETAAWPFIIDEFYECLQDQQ

Sequence of UniProt Q96GG9 (Q96GG9 62-259): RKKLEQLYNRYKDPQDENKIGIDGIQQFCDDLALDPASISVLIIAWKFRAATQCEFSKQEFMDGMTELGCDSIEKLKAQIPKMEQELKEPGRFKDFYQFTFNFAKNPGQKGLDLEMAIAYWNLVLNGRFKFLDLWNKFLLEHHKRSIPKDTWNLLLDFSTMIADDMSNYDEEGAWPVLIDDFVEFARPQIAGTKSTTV

Row | fold change of Kd against the acetylated peptide (weaker binding) [1] | fold improvement of binding over the unacetylated peptide [1] | fold change of Kd against the acetylated peptide (weaker binding) [2] | fold improvement of binding over the unacetylated peptide [2] | Substance
1 | 9 fold | 10 fold | – | – | N-terminally formylated human Ubc12 peptide
2 | – | – | 17 fold | 10 fold | N-terminally formylated yeast Ubc12 peptide
